Data on two substances can be found in patent KR20190105077A.

What all share (assay): cell-based or functional assay
For test [1], the target named is 인간 PD-1 (human PD-1) (human) (UniProt Q15116).
Test [2] addresses 배양된 세포에 의해 내인적으로 생성되는 TGF-β.
Test [3] deals with 인간 TGF-β1 (human TGF-β1) (human) (UniProt P01137).
Chain of UniProt P01137 (P01137 279-390 limits assumed): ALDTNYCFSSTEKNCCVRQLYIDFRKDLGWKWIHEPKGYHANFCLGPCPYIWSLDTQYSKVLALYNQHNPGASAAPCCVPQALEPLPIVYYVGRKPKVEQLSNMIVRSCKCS

Chain of UniProt Q15116 (Q15116 25-288): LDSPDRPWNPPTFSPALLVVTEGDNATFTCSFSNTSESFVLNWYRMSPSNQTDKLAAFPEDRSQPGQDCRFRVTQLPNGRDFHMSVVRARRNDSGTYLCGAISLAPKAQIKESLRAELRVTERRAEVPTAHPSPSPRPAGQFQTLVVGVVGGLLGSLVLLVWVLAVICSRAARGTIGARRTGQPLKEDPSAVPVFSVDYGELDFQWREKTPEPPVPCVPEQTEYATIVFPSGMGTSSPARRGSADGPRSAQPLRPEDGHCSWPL

Consider “마우스 항-hPD-1 IgG (BioLegend Cat#329912) (antibody)”, for which, in test [1], the NFAT-루시퍼라제 상대 발광 단위, 인간 PD-1 발현 Jurkat T 세포와 인간 PD-L1 발현 CHO-K1 세포의 24시간 공동-배양 stood at 866000 RLU; the 루시퍼라제 활성의 배율 변화, 항-hPD-1 항체 대 이소형 대조군 (234963 RLU) was 3.69 배; the 루시퍼라제 활성의 배율 변화, 항-hPD-1 항체 대 항체 부재 (206043 RLU) was 4.2 배.
On to “항-HEL hIgG4 (인간 IgG4, 카파 항-계란 라이소자임 항체, Crown Bioscience) (antibody)”, for which, in test [2], the iTreg(FOXP3+CD25+) 백분율, 자극된 인간 CD4+ T 세포, 항체 50 ㎍/㎖, 외인성 TGF-β 없음 (항체 없이 15%) was determined as 20%. In test [3], the NFAT-루시퍼라제 상대 발광 단위, 18 ng/㎖ TGF-β1로 12일 사전-처리된 Jurkat T 세포, 항-PD-1 Ab 존재 하 CHO-K1 공동-배양 (Ab 부재: 638866) was 639000 RLU and the iTreg(CD25+FOXP3+) 백분율, 자극된 인간 CD4+ T 세포 + 2 ng/㎖ 인간 TGF-β1, 항체 200 ㎍/㎖ 및 6.25 ㎍/㎖ (항체 없이 55%) came to 60%.
